Results on 3 molecules are retold here after patent US10925971B2, “Methods of treating PRLR positive breast cancer” (Regeneron Pharmaceuticals, Inc., priority 2016, dated 2021).

Experiment [1] addresses T1, monkey PRLR on HEK293/mfPRLR cells (Macaca fascicularis, UniProt A0A2K5WXK1).
T1 construct: HA; expressed in transfected cells; host or cells: HEK293
T1 sequence (A0A2K5WXK1 25-619): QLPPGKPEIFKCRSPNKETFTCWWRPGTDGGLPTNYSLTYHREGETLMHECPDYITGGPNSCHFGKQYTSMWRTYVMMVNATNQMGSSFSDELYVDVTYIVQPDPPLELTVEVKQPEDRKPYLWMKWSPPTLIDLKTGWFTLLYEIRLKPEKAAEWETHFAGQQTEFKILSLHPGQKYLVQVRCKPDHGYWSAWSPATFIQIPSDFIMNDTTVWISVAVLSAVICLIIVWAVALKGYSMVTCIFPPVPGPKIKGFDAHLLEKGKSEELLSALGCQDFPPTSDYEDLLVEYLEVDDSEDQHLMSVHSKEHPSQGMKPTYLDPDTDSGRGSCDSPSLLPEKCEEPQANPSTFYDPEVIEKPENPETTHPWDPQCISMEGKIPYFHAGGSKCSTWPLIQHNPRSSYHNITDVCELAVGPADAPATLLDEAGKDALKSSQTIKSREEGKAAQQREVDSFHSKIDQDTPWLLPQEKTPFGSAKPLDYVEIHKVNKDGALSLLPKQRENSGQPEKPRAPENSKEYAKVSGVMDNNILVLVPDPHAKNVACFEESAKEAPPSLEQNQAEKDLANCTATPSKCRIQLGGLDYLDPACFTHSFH
The experiment can be described thus: FACS cell surface binding. The procedure:
(§1) The ability of anti-PRLR antibodies to selectively bind PRLR expressing cell lines was next determined. Human, monkey Macaca fascicularis, and mouse PRLR constructs with an HA tag were stably introduced into HEK293 cells via Lipofectamine 2000-mediated transfection methodology. Transfectants (HEK293/hPRLR, HEK293/mfPRLR and HEK293/mPRLR) were selected for at least 2 weeks in complete growth media plus G418.
(§2) Cell surface expression of PRLR on 293/hPRLR cells was assessed via FACS analysis. Briefly, 1×10^5 cells were incubated with 10 μg/ml of Control antibody I, or an isotype control for 30 min on ice in antibody dilution buffer. Following two washes with antibody dilution buffer, cells were incubated with 10 μg/ml of PE conjugated anti-human secondary antibodies for 30 min on ice. Following two additional washes, samples were run on a Hypercyt® cytometer and analyzed in ForeCyt™ (IntelliCyt, Albuquerque, N. Mex.). The mean fluorescence intensities (MFI) were expressed as fold change above isotype control levels (background). FACS binding confirmed that Control I selectively bound to 293/hPRLR expressing cells with MFIs that were 30 fold above background (isotype ctrl) levels and less than 2 fold binding on parental cells.
(§3) Next, the anti-PRLR antibodies were tested via FACS for selective binding to the engineered overexpressing PRLR HEK293 cell lines, as well as to non-expressing HEK293 cells and a native PRLR expressing cell line (T47D).

The target of experiment [2] is T2, human PRLR on HEK293/hPRLR cells (Homo sapiens, UniProt P16471).
T2 construct: HA; expressed in transfected cells; host or cells: HEK293
T2 sequence (P16471 25-622): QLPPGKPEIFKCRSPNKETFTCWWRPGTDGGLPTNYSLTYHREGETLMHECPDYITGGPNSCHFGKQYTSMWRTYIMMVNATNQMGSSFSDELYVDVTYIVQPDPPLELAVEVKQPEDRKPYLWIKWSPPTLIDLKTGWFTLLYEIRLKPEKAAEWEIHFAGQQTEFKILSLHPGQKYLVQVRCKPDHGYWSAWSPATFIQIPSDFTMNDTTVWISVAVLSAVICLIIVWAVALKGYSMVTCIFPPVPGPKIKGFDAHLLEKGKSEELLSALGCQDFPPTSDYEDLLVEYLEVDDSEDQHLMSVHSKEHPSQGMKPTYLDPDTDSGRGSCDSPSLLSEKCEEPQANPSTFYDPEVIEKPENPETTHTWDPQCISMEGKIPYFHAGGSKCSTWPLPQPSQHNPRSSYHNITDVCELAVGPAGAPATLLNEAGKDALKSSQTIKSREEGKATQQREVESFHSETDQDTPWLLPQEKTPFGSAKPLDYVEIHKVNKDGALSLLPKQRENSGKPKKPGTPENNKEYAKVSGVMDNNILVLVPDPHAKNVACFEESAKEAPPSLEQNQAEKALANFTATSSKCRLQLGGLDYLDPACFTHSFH
The experiment can be described thus: FACS cell surface binding. The procedure: as §1, §2, §3

Experiment [3] addresses T3, mouse PRLR on HEK293/mPRLR cells (Mus musculus, UniProt Q08501).
T3 construct: HA; expressed in transfected cells; host or cells: HEK293
T3 sequence (Q08501 20-608): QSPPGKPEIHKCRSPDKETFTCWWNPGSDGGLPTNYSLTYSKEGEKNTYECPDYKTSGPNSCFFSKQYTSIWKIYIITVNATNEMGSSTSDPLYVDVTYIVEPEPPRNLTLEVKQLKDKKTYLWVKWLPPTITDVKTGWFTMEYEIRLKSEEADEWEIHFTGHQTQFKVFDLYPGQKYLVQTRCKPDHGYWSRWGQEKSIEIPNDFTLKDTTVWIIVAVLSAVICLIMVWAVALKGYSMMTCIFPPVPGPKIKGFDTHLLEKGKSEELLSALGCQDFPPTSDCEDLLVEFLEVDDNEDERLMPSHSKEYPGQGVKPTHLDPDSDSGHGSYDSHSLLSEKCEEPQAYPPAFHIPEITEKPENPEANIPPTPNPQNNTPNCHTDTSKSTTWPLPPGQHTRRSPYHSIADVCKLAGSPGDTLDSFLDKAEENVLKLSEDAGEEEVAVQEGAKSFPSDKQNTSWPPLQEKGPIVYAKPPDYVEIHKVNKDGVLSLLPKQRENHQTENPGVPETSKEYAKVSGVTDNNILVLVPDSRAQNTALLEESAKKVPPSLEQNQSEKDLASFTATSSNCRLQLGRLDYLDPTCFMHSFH
Put plainly: FACS cell surface binding. The procedure:
as §1, §2, §3

The target in experiment [4] is T4, dimeric human PRLR (hPRLR.mFc; SEQ ID NO:402) (Homo sapiens, UniProt P16471).
T4 construct: dimeric (hPRLR.mFc)
T4 sequence (P16471 with tags, fused parts or gaps): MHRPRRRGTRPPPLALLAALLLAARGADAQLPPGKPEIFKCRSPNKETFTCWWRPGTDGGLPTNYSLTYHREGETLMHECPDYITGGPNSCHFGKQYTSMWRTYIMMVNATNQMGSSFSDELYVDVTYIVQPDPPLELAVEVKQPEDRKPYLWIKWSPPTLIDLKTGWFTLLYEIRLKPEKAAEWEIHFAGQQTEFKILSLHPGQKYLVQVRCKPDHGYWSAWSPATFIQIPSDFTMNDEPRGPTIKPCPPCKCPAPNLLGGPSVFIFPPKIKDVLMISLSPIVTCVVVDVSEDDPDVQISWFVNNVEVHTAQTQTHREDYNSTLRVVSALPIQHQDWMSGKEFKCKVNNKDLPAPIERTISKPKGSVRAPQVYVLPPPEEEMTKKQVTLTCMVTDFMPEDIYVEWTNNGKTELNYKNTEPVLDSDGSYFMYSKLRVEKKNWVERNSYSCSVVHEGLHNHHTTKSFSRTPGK
The experiment can be described thus: Surface plasmon resonance (Biacore T200), antibody-capture format. It is filed as binding. Conditions: analyte hPRLR.mFc. The procedure: (§4) Antibodies, expressed as human IgG1 Fc (i.e., “H1H” designations), were captured onto an anti-human Fc sensor surface (mAb-capture format), and soluble monomeric (hPRLR.mmh; SEQ ID NO:401, or Macaca fascicularis (mf) PRLR.mmh; SEQ ID NO:403) or dimeric (hPRLR.mFc; SEQ ID NO:402) PRLR protein was injected over the sensor surface. Measurements were conducted on a T200 Biacore instrument. Kinetic association (ka) and dissociation (kd) rate constants were determined by processing and fitting the data to a 1:1 binding model using Scrubber 2.0 curve fitting software.

Experiment [5] has as its system Macaca fascicularis PRLR (mfPRLR.mmh; SEQ ID NO:403). The description is as above. It is filed as binding. To be noted: analyte mfPRLR.mmh. The procedure: as §4
For experiment [6], the target named is T5, monomeric human PRLR (hPRLR.mmh; SEQ ID NO:401) (Homo sapiens, UniProt P16471).
T5 construct: soluble monomeric (hPRLR.mmh); mmh (myc-myc-hexahistidine) (C)
T5 sequence (P16471 with tags, fused parts or gaps): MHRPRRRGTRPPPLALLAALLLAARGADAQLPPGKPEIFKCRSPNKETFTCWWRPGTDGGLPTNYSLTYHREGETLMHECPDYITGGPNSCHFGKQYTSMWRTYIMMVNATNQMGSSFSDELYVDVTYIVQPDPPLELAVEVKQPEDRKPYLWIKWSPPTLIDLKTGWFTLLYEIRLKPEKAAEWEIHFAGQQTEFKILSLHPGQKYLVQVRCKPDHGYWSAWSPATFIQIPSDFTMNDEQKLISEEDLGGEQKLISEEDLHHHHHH
The experiment is described as above. Format: binding. To be noted: analyte hPRLR.mmh. The procedure:
as §4

Experiment [7] relates to HEK293 parental cells. Put plainly: FACS cell surface binding. Set-up: species or system human. The procedure: as §1, §2, §3
The target of experiment [8] is T6, native PRLR expressing T47D cells (Homo sapiens, UniProt P16471).
T6 construct: a native PRLR expressing cell line (T47D); endogenous in cells; host or cells: T47D
T6 sequence (P16471 25-622): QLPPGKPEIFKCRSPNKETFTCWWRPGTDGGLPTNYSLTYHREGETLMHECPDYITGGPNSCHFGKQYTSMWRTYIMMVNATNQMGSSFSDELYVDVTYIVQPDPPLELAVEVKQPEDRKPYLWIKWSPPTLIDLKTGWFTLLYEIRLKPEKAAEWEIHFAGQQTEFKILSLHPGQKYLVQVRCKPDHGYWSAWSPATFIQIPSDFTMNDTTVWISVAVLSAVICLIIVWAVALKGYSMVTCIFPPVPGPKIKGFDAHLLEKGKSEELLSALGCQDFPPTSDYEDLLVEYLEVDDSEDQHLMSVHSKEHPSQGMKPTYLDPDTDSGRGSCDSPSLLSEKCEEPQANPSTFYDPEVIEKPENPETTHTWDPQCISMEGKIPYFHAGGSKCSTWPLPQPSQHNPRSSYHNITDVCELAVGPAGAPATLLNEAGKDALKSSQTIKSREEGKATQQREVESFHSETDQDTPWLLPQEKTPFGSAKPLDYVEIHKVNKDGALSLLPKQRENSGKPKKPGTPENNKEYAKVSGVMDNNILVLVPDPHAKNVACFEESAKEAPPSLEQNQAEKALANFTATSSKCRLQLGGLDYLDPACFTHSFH
The experiment can be described thus: FACS cell surface binding. The procedure: as §2, §3

Chain of Macaca fascicularis PRLR (mfPRLR.mmh; SEQ ID NO:403) (as listed by the source): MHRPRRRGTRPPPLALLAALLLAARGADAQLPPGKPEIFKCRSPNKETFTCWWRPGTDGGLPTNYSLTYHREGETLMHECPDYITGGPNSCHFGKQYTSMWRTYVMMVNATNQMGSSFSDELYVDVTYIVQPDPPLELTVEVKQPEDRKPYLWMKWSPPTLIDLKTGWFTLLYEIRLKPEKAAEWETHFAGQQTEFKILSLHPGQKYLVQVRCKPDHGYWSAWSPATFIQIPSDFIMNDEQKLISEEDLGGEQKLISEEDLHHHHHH

B1: H1H6967N: anti-PRLR antibody, human IgG1 Fc form of H2M6967N of Table 1; HCVR/LCVR SEQ ID NOs 354/362 (antibody, V domains shown)
VH: EVQLVESGGDLVHPGRSLRLSCAASGFPFDEYAMHWVRQVPGKGLEWVSGISWSNNNIGYADSVKGRFTISRDNAKNSLYLQMNSLRPEDTAFYYCAKSGIFDSWGQGTLVTVSS
VL: EIVMTQSPATLSVSPGERATLSCRASQSVSRDLAWYQQKPGQAPRLLIHGASTRATGIPARFSGSGSGAEFTLIISSLQSEDFAVYYCQQYNNWPLTFGGGTKVEIK
modifications: human IgG1 Fc
B1: the “FACS Cell Binding” value in experiment [1] was 28 Fold Above Background; in experiment [2], 38 Fold Above Background; in experiment [3], 2 Fold Above Background; in experiment [7], 1 Fold Above Background; in experiment [8] it was 41 Fold Above Background. Moreover, the ka in experiment [4] (25° C.) came out at 407000 M/s; in experiment [4] (37° C.), 907000 M/s; in experiment [5] (25° C.), 190000 M/s; in experiment [5] (37° C.) it was 356000 M/s; in experiment [6] (25° C.), 246000 M/s; in experiment [6] (37° C.) it was 424000 M/s. Besides, the kd worked out at 4.45e-05 s⁻¹ in experiment [4] (25° C.); 9.73e-05 s⁻¹ in experiment [4] (37° C.); 0.000585 s⁻¹ in experiment [5] (25° C.); 0.00162 s⁻¹ in experiment [5] (37° C.); 0.000332 s⁻¹ in experiment [6] (25° C.); 0.000933 s⁻¹ in experiment [6] (37° C.).

B2: H1H6762P: fully human anti-PRLR antibody, human IgG1 Fc; HCVR/LCVR SEQ ID NOs 2/10 (antibody, V domains shown)
VH: QVQLVESGGGVVQPGRSLRLSCAASGFTFSHYGMVWVRQPPGKGLEWVALISFDGTTKYYADSVKGRFTISRDNSKNTLYLQMNSLRAEDTAVYFCVGAIAAAAFDLWGRGTLVTVSS
VL: EIVMTQSPATLSVSPGERATLSCRASQSVSSDLAWYQQKPGQAPRLLIYSASARATGIPARFTGSGSGTDFTLTISSLQSEDFAVYYCQQYNNWPMYTFGQGTKLEIK
As for B2, the “FACS Cell Binding” value in experiment [1] turned out to be 26 Fold Above Background; in experiment [2], 36 Fold Above Background; in experiment [3] it was 2 Fold Above Background; in experiment [7] it was 1 Fold Above Background; in experiment [8] it was 38 Fold Above Background. Moreover, the ka in experiment [4] (25° C.) turned out to be 651000 M/s; in experiment [4] (37° C.) it was 801000 M/s; in experiment [5] (25° C.), 408000 M/s; in experiment [5] (37° C.) it was 679000 M/s; in experiment [6] (25° C.), 692000 M/s; in experiment [6] (37° C.), 948000 M/s. The kd is 6.45e-05 s⁻¹ in experiment [4] (25° C.); 0.000103 s⁻¹ in experiment [4] (37° C.); 0.000208 s⁻¹ in experiment [5] (25° C.); 0.000558 s⁻¹ in experiment [5] (37° C.); 0.000179 s⁻¹ in experiment [6] (25° C.); 0.000455 s⁻¹ in experiment [6] (37° C.).

B3: H1H6976N: anti-PRLR antibody, human IgG1 Fc form of H2M6976N of Table 1; HCVR/LCVR SEQ ID NOs 386/394 (antibody, V domains shown)
VH: EVQLLESGGGFVQPGGSLRLSCAASGFTFSSYAMSWVRQAPGKGLEWVSIISSNGRYTYYADSVKGRFTISRDNSKNTLYLQMNSLRAEDTAVYYCATVTGDWFDPWGQGTLVTVSS
VL: DIQLTQSPSFLSASVGDRVTITCWASQDIDISLAWYQQKPGKAPKLLIYAASTLQSGVPSKFSGSGSGTDFTLTISSLQPEDFSTYYCQQLNSYPITFGQGTRLDIK
modifications: human IgG1 Fc
As for B3, the “FACS Cell Binding” value in experiment [1] worked out at 29 Fold Above Background; in experiment [2], 8 Fold Above Background; in experiment [3] it was 1 Fold Above Background; in experiment [7] it was 1 Fold Above Background; in experiment [8], 37 Fold Above Background. The ka is 1.12e+06 M/s in experiment [4] (25° C.); 1.37e+06 M/s in experiment [4] (37° C.); 466000 M/s in experiment [5] (25° C.); 603000 M/s in experiment [5] (37° C.); 544000 M/s in experiment [6] (25° C.); 777000 M/s in experiment [6] (37° C.). The kd in experiment [4] (25° C.) is 0.000101 s⁻¹; in experiment [4] (37° C.) it was 0.00014 s⁻¹; in experiment [5] (25° C.) it was 0.000814 s⁻¹; in experiment [5] (37° C.) it was 0.00316 s⁻¹; in experiment [6] (25° C.), 0.000864 s⁻¹; in experiment [6] (37° C.), 0.00314 s⁻¹.
